According to US20250090699A1, “FAP TARGETING CYCLIC PEPTIDES AND CONJUGATES THEREOF” (Novartis AG, priority 2023, published 2025):
Counter-ions that a name gives are not always drawn. Starred links: 1 amine or outer side, 2 acyl side, 3 side chain; linkers in the order of their positions; H or OH if unused. Non-standard residues stand in square brackets, D forms with d. Residues, ends and D or L forms follow the SMILES beside them. Primed or numbered codes have the meaning given here. *: point of attachment. F(4amPEG2NHNODAGA-Ga) = gallium complex of 2,2'-(7-(1-(4-((S)-2-amino-2-carboxyethyl)phenyl)-15-carboxy-3,12-dioxo-5,8-dioxa-2,11-diazapentadecan-15-yl)-1,4,7-triazonane-1,4-diyl)diacetic acid (Phe with 4-aminomethyl-PEG2-NODAGA-Ga), O=C([O-])CN1CCN(CC(=O)[O-])CCN(C(CCC(=O)NCCOCCOCC(=O)NCc2ccc(C[C@H](N[*:1])C(=O)[*:2])cc2)C(=O)[O-])CC1.[Ga+3]; F(4amPEG2NHDOTA-Lu)″ = lutetium (S)-2,2',2''-(10-(1-(4-(2-amino-2-carboxyethyl)phenyl)-3,12-dioxo-5,8-dioxa-2,11-diazatridecan-13-yl)-1,4,7,10-tetraazacyclododecane-1,4,7-triyl)triacetic acid, O=C([O-])CN1CCN(CC(=O)[O-])CCN(CC(=O)NCCOCCOCC(=O)NCc2ccc(C[C@H](N[*:1])C(=O)[*:2])cc2)CCN(CC(=O)[O-])CC1.[Lu+3]; COpipzaa = 4-(carboxymethyl)piperazine-1-carbonyl, O=C(O)CN1CCN(C(=O)*)CC1; F(4amPEG2NHRDOTAGA-Lu) = Phe with 4-aminomethyl-PEG2-NH-DOTAGA, Lu complex; X4 = 4‑(carboxymethyl)piperazine‑1‑carbonyl, O=C(O)CN1CCN(C(=O)*)CC1; hS(Pr) = O-propyl-L-homoserine, CCCOCC[C@H](N[*:1])C(=O)[*:2]; Trp(7-aza) = N[C@@H](Cc1c[nH]c2ncccc12)C(=O)O; NMeF = CN[C@@H](Cc1ccccc1)C(=O)O; Ahp(2) = CCCCC[C@H](N)C(=O)O; X3 = FC1(F)CCN(*)C1

Legend:
[1] = target: T1, mouse FAP (Mus musculus, UniProt P97321); test: Enzymatic FAP competition assay (Z-Gly-Pro-AMC fluorescence), mouse FAP; format: biochemical; conditions: read-out: m. FAP, Enz., IC50
T1 construct: biotinylated His, Avi tag, mouse FAP (26-761, FAP-M82Q5); His; Avi tag (biotinylated); purchased AcroBiosystems FAP-M82Q5
T1 sequence (P97321 26-761): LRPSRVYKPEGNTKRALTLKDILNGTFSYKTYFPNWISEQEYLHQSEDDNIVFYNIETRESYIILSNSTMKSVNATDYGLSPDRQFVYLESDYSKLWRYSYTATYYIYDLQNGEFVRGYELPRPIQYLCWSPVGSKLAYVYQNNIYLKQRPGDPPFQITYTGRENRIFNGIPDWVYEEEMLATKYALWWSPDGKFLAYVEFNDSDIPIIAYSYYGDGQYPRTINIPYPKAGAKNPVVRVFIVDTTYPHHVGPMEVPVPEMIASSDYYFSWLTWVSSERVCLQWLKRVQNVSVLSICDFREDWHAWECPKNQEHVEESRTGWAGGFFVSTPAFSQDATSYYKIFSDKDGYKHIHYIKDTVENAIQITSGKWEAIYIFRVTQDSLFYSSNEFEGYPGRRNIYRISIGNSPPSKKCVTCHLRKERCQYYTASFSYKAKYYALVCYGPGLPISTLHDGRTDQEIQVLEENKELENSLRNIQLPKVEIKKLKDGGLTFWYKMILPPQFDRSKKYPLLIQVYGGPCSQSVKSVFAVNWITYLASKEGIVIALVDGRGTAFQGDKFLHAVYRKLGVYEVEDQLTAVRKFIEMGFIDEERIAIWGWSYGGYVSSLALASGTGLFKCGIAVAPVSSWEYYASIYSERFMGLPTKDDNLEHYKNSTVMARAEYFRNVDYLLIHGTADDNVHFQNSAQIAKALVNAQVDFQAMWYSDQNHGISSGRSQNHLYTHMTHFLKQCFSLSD
Method: (§1) Peptide potencies (IC50) to inhibit the FAP enzymatic activity were determined using a fluorescence-based assay towards the biotinylated His, Avi tag, human FAP (26-760, FAP-H82Q6) and the biotinylated His, Avi tag, mouse FAP (26-761, FAP-M82Q5). Standard assay conditions consisted of 20 μL total volume in white 384-well plates (Greiner, Ref. 784075), in 50 mM phosphate buffer pH 7.5 containing 150 mM NaCl, 0.05% Tween20 and 1% final DMSO. Tested peptides at 14 different concentrations up to 1 μM were added to 0.01 nM human or mouse FAP. The peptides were incubated for 24 hours together with the protein before adding the substrate 50 μM Z-Gly-Pro-AMC (I-1145 from Bachem). Samples were then incubated at 22-24° C. for 4 h before reading the fluorescence at excitation wavelength of 380 nm and emission wavelength of 460 nm using the Tecan Infinite® M1000 PRO. The high control (100% activity) was not containing any peptide, and an internal potent peptide was added at 10 μM concentration for the low control (100% inhibition). IC50 values were calculated by curve fitting using an in-house developed software (Novartis Helios software application) using the method described by Fomenko et al., 2006 (regression algorithms for nonlinear dose-response curve fitting). Following normalization of activity values for the wells to % inhibition (% inhibition=[(high control-sample)/(high control-low control)]x 100). IC50 fitting was carried out from the duplicated points.

[2] = target: T2, human FAP (Homo sapiens, UniProt Q12884); test: Enzymatic FAP competition assay (Z-Gly-Pro-AMC fluorescence), human FAP; format: biochemical; conditions: read-out: h. FAP, Enz., IC50
T2 construct: the biotinylated His, Avi tag, human FAP (26-760, FAP-H82Q6); His; Avi tag (biotinylated); purchased AcroBiosystems FAP-H82Q6
T2 sequence (Q12884 26-760): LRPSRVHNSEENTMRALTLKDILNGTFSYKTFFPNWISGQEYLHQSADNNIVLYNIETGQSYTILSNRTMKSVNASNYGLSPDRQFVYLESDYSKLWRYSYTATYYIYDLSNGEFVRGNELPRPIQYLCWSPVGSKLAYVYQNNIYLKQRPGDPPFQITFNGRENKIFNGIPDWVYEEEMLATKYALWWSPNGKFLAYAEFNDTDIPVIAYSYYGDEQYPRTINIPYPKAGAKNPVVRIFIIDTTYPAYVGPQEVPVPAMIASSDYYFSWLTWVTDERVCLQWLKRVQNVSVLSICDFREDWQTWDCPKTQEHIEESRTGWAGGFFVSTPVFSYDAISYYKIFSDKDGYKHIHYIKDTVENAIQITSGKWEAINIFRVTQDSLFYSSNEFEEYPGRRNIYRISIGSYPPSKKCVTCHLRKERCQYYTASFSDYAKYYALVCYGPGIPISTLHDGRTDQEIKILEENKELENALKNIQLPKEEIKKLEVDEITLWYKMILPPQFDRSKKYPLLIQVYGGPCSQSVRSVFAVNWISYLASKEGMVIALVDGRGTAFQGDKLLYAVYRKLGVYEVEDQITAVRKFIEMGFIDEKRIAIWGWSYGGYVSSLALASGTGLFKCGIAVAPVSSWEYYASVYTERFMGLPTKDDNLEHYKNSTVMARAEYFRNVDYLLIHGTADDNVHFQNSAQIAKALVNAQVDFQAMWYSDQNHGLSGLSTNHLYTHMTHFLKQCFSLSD
Method: as §1

[3] = target: T1, mouse FAP; test: Surface plasmon resonance (SPR) for peptide affinity, mouse FAP; format: binding
Method: Peptide affinities (KD) were determined by SPR using a Biacore™ 8K device (Cytiva) towards the following proteins: biotinylated His, Avi tag, human FAP (26-760, FAP-H82Q6), biotinylated His, Avi tag, mouse FAP (26-761, FAP-M82Q5), His tag, human DPP4 (34-766, DP4-H82E3), all purchased from AcroBiosystems and His tag, mouse DPP4 (29-760, 954-SE) from R&D Systems. The FAP proteins and their homologous were diluted to a concentration of 2 μg/mL into acetate buffer pH 5.5, then immobilized onto a CM5 sensorchip (Cytiva, BR-1005-30) to reach a response around 2000 R U. The running buffer HBS-EP+pH 7.6 (20× from Teknova CAT. No: H8022) contained 10 mM HEPES pH 7.6, 150 mM NaCl, 3 mM EDTA, 0.05% Tween20 and 2% DMSO. Experiments were carried out at 25° C. using a flow rate of 30 μL/min. Compounds were tested in single cycle kinetic mode at 8 different concentrations. Curve fitting was performed using the Biacore™ 8K evaluation software. The sensorgrams were fitted by applying a 1:1 binding model to calculate kinetic rate constants and equilibrium dissociation constants (KD).
For this assay, the setup had the same conditions (flow rate, running buffer, peptide dilution) as described above for the CM5 method. The oligo CAP reagent obtained in the CAPture Kit (Ref. 28920234) was 1/5 diluted into running buffer and used with a contact time of 300 s at a flow rate of 2 μL/min. The human and mouse FAP constructs described above were used (from AcroBiosystems or produced in house). The FAP proteins were diluted to a concentration of 2 μg/mL into acetate pH 5.5, 0.05% Tween20 and used with a contact time of 600 s at a flow rate of 10 μL/min. The peptides were tested with an association time of 280 s followed by a dissociation time of 3000 s at a flow rate of 30 μL/min. The regeneration was done using the regeneration solution (8 M guanidine-HCl, 1 M NaOH) as obtained with a contact time of 270 s at a flow rate of 10 μL/min. […] The compounds marked with an asterisk were tested against human and mouse DDP4.

Compound	IC50 [1] [nM]	IC50 [2] [nM]	Kd [3] [nM]
CN1C(=O)CNC(=O)[C@H](CCCCN)NC(=O)[C@H]2CCCN2C(=O)[C@H](CC(=O)O)NC(=O)[C@H](Cc2ccc(O)cc2)NC(=O)CNC(=O)[C@H](Cc2c[nH]c3ccccc23)NC(=O)[C@H](CCC(=O)N2CCC(F)(F)C2)NC(=O)[C@H](Cc2ccc(O)cc2)NC(=O)[C@@H]1Cc1ccccc1 [Example A30, Lys-Gly-NMePhe-Tyr-Q(Pyrro(4F2))-Trp-Gly-Tyr-Asp-D-Pro, TFA salt] (cyclo(D[dP]KG[NMeF]YE(X3)WGY))	2.5	0.79	2.4
CCCCC[C@@H]1NC(=O)[C@H](Cc2ccc(O)cc2)NC(=O)[C@H](Cc2ccccc2)N(C)C(=O)CNC(=O)[C@H](CCCCN)NC(=O)[C@H]2CCCN2C(=O)[C@H](CC(=O)O)NC(=O)[C@H](Cc2ccc(O)cc2)NC(=O)CNC(=O)[C@H](Cc2c[nH]c3ncccc23)NC1=O [Example A26, 2-((3S,9S,12S,15S,18S,24S,27S,32aR)-18-((1H-pyrrolo[2,3-b]pyridin-3-yl)methyl)-3-(4-aminobutyl)-9-benzyl-12,24-bis(4-hydroxybenzyl)-8-methyl-1,4,7,10,13,16,19,22,25,28-decaoxo-15-pentyldotriacontahydropyrrolo[1,2-a][1,4,7,10,13,16,19,22,25,28]decaazacyclotriacontin-27-yl)acetic acid TFA salt] (cyclo([Ahp(2)][Trp(7-aza)]GYD[dP]KG[NMeF]Y))	1.6	0.47	2.7

More lines, now with the values ahead:

IC50 [1] [nM]	IC50 [2] [nM]	Kd [3] [nM]	Compound
0.03	0.016	< 0.031	Pro-Gly-NMePhe-F(4amPEG2NHDOTA-Lu)-hS(Pr)-Trp-Gly-K(COpipzaa)-Asp-D-Pro (cyclo(PG[NMeF][F(4amPEG2NHDOTA-Lu)″][hS(Pr)]WGK(X4)D[dP])) [Example C20]
0.026	0.012	< 0.02	Gly-Gly-NMePhe-F(4amPEG2NHRDOTAGA-Lu)-hS(Pr)-Trp-Gly-K(COpipzaa)-Asp-D-Pro (cyclo(GG[NMeF][F(4amPEG2NHRDOTAGA-Lu)][hS(Pr)]WGK(COpipzaa)D[dP]); also: Lu complex) [Example C33]
0.019	0.006	< 0.02	Gly-Gly-NMePhe-F(4amPEG2NHNODAGA-Ga)-hS(Pr)-Trp-Gly-K(COpipzaa)-Asp-D-Pro (cyclo(GG[NMeF][F(4amPEG2NHNODAGA-Ga)][hS(Pr)]WGK(COpipzaa)D[dP]); also: Ga complex) [Example C40]
